Paper PMC5789857 (Nature Communications, 2018)

Target: TBEV envelope protein (E-protein), strain Hypr, in the purified virion (tick-borne encephalitis virus, strain …, UniProt Q01299)
Assay: cell-based or functional assay

B1: Fab fragment of neutralizing mouse monoclonal antibody 19/1786 (Fab, V domains shown)
VH: EVKLEESGGGLVQPGGSLKLSCAASGFTFSSYGMSWVRQTPDKRLELVAATNSDGDSTYYPDSVKGRFTISRDRAKNTLYLQMSSLKSEDTAMYYCTRVLYDYDGEFAYWGQGTLVTVSA
VL: DIVMTQSQKFMSTSVGDRVTVTCKASQNVGTNVAWYQQKPGQSPKGLIYSASYRYSGVPDRFIGSGSGTDFTLTISNVQSGDLAEYFCQQYNNHPLTFGAGTKLELK
neutralisation of TBEV (cytolysis of porcine kidney stable cells), EC50: 35 µg/mL
